Measurements from publication PMC2173428.

Biological target: His-tagged full-length ActA (ActA[1–584Rhis]) (Listeria monocytogenes)
Assay: co-sedimentation

Chain of His-tagged full-length ActA (ActA[1–584Rhis]) (Listeria monocytogenes) (P33379 30-613 limits assumed): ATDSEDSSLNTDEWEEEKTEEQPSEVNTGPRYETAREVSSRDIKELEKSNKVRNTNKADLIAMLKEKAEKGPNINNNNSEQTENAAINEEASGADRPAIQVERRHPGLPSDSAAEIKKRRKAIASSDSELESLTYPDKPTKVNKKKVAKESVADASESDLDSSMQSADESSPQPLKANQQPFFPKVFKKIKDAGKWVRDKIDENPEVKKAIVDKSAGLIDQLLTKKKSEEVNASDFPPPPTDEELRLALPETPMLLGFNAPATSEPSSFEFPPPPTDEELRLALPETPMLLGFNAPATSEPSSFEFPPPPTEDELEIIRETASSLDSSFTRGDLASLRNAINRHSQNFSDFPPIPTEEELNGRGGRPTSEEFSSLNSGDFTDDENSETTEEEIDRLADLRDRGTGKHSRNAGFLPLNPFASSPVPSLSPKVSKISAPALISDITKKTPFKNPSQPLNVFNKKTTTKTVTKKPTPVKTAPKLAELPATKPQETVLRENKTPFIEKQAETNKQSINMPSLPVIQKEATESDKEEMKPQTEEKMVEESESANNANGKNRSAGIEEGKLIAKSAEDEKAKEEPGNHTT

## His-tagged human vasodilator-stimulated phosphoprotein (VASP) (from UniProt P50552 1-380) (natural protein)
  percent bound: > 90%
